This is an account of results in patent publication US6713610.

The target of experiment [1] is T1, human recombinant IL-8 (human, UniProt P10145 28-99).
T1 construct: also called hIL8; h-IL-8
T1 sequence (looked up): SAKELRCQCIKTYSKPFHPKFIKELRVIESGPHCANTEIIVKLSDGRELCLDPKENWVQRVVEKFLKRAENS
Nature of the experiment: BIAcore SPR, IL-8 immobilized (81 RU surface), hybridoma supernatant as analyte.

The target of experiment [2] is T1, human recombinant IL-8. Nature of the experiment: BIAcore SPR, IL-8 immobilized (134 RU surface), hybridoma supernatant as analyte.

B1: I8K4.2 (antibody, V domains shown)
VH: SLTCAVYGGSFSGYYWTWIRQPPGKGLEWIGEIIHHGNTNYNPSLKSRVSISVDTSKNQFSLTLSSVTAADTAVYYCARGGAVAAFDYWGQGTLVTVSS
VL: TQSPSSLSASVGDRVTITCQASQDISNYLNWYQQKAGKAPKVLIYAASNLEAGVPSRFSGSGSGTDFTFTISSLQPEDIATYYCQHYDNLLTFGGGTKVEIKR
The Kd is a measure of binding affinity in units of concentration. A word on the koff: it is the rate constant with which the complex falls apart. In general, kon refers to the rate constant with which the complex forms. As to B1, in the experiment with human recombinant IL-8 [1], the Kd stood at 0.142 nM, the koff was found to be 0.000817 s⁻¹ and the kon was found to be 5.76e+06 M⁻¹ s⁻¹. Further, in the experiment with human recombinant IL-8 [2], the Kd worked out at 0.196 nM, the koff amounted to 0.000384 s⁻¹ and the kon was determined as 1.95e+06 M⁻¹ s⁻¹.
